# Source: publication PMC2841617, “A Combination of Independent Transcriptional Regulators Shapes Bacterial Virulence Gene Expression during Infection”
# Legend:
# [1] = system: CcpA (Streptococcus pyogenes (group A Streptococcus; strain of the clone not stated here)); assay: fluorescence polarization; conditions: CovR FP: 1 nM fluorescein DNA, 20 mM Tris pH 7.5, 50 mM NaCl, 2 mM DTT, 10 ug/mL poly(dI:dC), 25 C, CcpA FP as in ref 30 (buffer not given), with or without …
# [2] = system: CcpA;HPr-Ser46-P (Streptococcus pyogenes (group A Streptococcus; strain of the clone not stated here);Streptococcus pyogenes (group A Streptococcus)); assay: fluorescence polarization; conditions: CovR FP: 1 nM fluorescein DNA, 20 mM Tris pH 7.5, 50 mM NaCl, 2 mM DTT, 10 ug/mL poly(dI:dC), 25 C, CcpA FP as in ref 30 (buffer not given), with or without …
# [3] = molecular target: CovR (unphosphorylated) (Streptococcus pyogenes MGAS5005 (serotype M1)) (UniProt O87527); assay: fluorescence polarization; conditions: CovR FP: 1 nM fluorescein DNA, 20 mM Tris pH 7.5, 50 mM NaCl, 2 mM DTT, 10 ug/mL poly(dI:dC), 25 C; CcpA FP as in ref 30 (buffer not given), with or without …
# [4] = molecular target: CovR-P (phosphorylated) (Streptococcus pyogenes MGAS5005 (serotype M1)) (UniProt O87527); assay: fluorescence polarization; conditions: CovR FP: 1 nM fluorescein DNA, 20 mM Tris pH 7.5, 50 mM NaCl, 2 mM DTT, 10 ug/mL poly(dI:dC), 25 C; CcpA FP as in ref 30 (buffer not given), with or without …
# CovR (unphosphorylated) = CovR (unphosphorylated) (Streptococcus pyogenes MGAS5005 …, UniProt O87527 1-228); assay: fluorescence polarization; unphosphorylated; CovR FP: 1 nM fluorescein DNA, 20 mM Tris pH 7.5, 50 mM NaCl, 2 mM DTT, 10 ug/mL poly(dI:dC), 25 C; CcpA FP as in ref 30 (buffer not given), with or without 10; conditions: protein: recombinant, chain copies: 2, label: fluorescein
molecule,measurement,setting,value
nga/slo cre,Kd,[1],674 nM
same,Kd,[2],42 nM
spyCEP cre,Kd,[1],257 nM
same,Kd,[2],33 nM
amyA cre,Kd (nM (unit implied)),[1]; no HPr-Ser46-P,160
same,Kd (nM (unit implied)),[2]; 10 uM HPr-Ser46-P,32
hasA promoter probe,Kd,[3],2200 nM
same,Kd,[4],640 nM
speB cre,Kd,[1],100 nM
same,Kd,[2],5 nM
arcA cre,Kd,[1]; no HPr-Ser46-P,219 nM
same,Kd,[2]; 10 uM HPr-Ser46-P,18 nM
CAACCAAACTCTCATTAGAAACCCCCCTTTCTAATGAGAGTTTGGTTG (structured_DNA) [amyA promoter probe],Kd,"CovR (unphosphorylated); hairpin (21 bp stem, C6 loop)",245 nM
ACAAAAACCAATTAGAAAGACCCCCTCTTTCTAATTGGTTTTTGT (structured_DNA) [arcA promoter probe],Kd,"CovR (unphosphorylated); hairpin (20 bp stem, C5 loop)",637 nM
